Data published in US20140322163A1.
Changes are numbered by the printed parent chain. In names and notes the source's numbering stands.

B1: VRC07 G54H heavy chain complemented with VRC01 light chain (antibody, V domains shown)
VH: QVRLSQSGGQMKKPGDSMRISCRASGYEFINCPINWIRLAPGKRPEWMGWMKPRHGAVSYARQLQGRVTMTRDMYSETAFLELRSLTSDDTAVYFCTRGKYCTARDYYNWDFEHWGQGTPVTVSS
VL: EIVLTQSPGTLSLSPGETAIISCRTSQYGSLAWYQQRPGQAPRLVIYSGSTRAAGIPDRFSGSRWGPDYNLTISNLESGDFGVYYCQQYEFFGQGTKVQVDI
B2: VRC07 G54W heavy chain complemented with VRC01 light chain (antibody, V domains shown)
VH: B1 VH with H55W
VL: B1 VL

Target: HIV-1 Env-pseudoviruses (neutralization panels)
Assay: cell-based or functional assay

Binder	fold improvement of neutralization over wild type VRC07 (IC50), six-virus panel, TZM-bl	fold improvement of neutralization over wild type VRC07 (IC80), six-virus panel, TZM-bl	fold increase of neutralization over VRC01	fold increase of neutralization over VRC07	fold increase of neutralization potency compared to VRC07 heavy chain with VRC01 light chain	fold increase of neutralization potency over VRC01	fold increase of neutralization potency over VRC07	neutralization potency relative to VRC07, panel of 7-12 HIVs	neutralization potency relative to mature VRC01, panel of 7-12 HIVs
B1	2.3 fold	2.5 fold	7 fold	2.5 fold	> 2 fold	–	–	–	–
B2	–	–	–	–	–	13 fold	4.8 fold	> 2 fold	> 8 fold
